Measurements from the supplement of paper PMC10724198.
± gives the standard deviation of the averaged measurements.

Test system: Saccharomyces cerevisiae
Assay: protein stability index of tFT-peptide fusion (C-terminal peptide) (PSI (0-1 scale)); higher = more stable (slower turnover)
Conditions: genetic background: das1 deletion; temperature: 30 C
Protocol: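 MPS profiling in S. cerevisiae of the tFT-X12 degron library: putative degron peptides plus stable controls, 12 aa, fused to the C-terminus of a sfGFP-mCherry timer. Cells are FACS-sorted into 8 mCherry/sfGFP bins and deep-sequenced. PSI runs from 0 (unstable) to 1 (stable). Backgrounds are wild type, das1Δ and doa10Δ at 30 °C, and wild type, das1Δ, cdc34-1 and cdc53-1 at 37 °C; 2-3 technical replicates each.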
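Also: PSI is a weighted mean of sequencing reads over stability bins, variants kept only with over 10 reads, mCherry proximal and sfGFP distal, peptide attached via GGGS linker.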

Sequence	protein stability index
WFSVRQLVFVSG	0.163 ± 0.028
WISVRIFISCFF	0.191 ± 0.024
WLCLAVLVRFPC	0.25 ± 0.043
WQIGIYILQGLA	0.242 ± 0.04
WSCVGLWGRFCC	0.637 ± 0.011
WSISFGLLVCWV	0.199 ± 0.019
WVFVVWFVFVVG	0.241 ± 0.022
WVGGVLLSVVGG	0.213 ± 0.028
WVRLGRSWTTVG	0.686 ± 0.035
WVRLWGVLEAQG	0.334 ± 0.028
WVSFYLLFFFSF	0.42 ± 0.044
YFFFPILCFCFF	0.38 ± 0.028
YFLFLRLVFLFF	0.233 ± 0.018
YILLRWVNLSCL	0.488 ± 0.022
YPVAWSSAIIIR	0.362 ± 0.022
YQKIARVSLAVS	0.347 ± 0.038
YVIGLLFVVSGV	0.258 ± 0.044
YYKGGYLYLRLS	0.454 ± 0.029

Same assay, conditions: genetic background: das1 deletion; temperature: 37 C

Sequence	protein stability index
VVFSLLLWLFIS	0.47 ± 0.0075
VVGLSLLFSGGV	0.7583 ± 0.0016
VVQCRFPTPCVV	0.5335 ± 0.0022
VVSLGGWCLYIY	0.461 ± 0.012
VVVFGWIGYLYL	0.511 ± 0.021
VVVHFVLVCSTS	0.284 ± 0.0084
VWFLLFVVWCGS	0.384 ± 0.0055
VWLAWCIVGGLG	0.5441 ± 0.0026
VWVAWLGGAILA	0.29 ± 0.0052
VYCCVRSLRVAI	0.6347 ± 0.0019
VYVRYYVRVVVI	0.167 ± 0.024
WCFFFVGCCCFG	0.5249 ± 0.004
WCFGSLLIRFSL	0.5548 ± 0.0037
WDLYFSVVYRVV	0.491 ± 0.017
WFFPVSPPVMAS	0.3 ± 0.013
WFLFVLCAWGFF	0.374 ± 0.039
WFLLSLSSFVSS	0.469 ± 0.0061
WFSMSRLWVFYS	0.729 ± 0.045
WFSRCVSLGLCW	0.398 ± 0.018

Sequence	protein stability index
WFSVRQLVFVSG	0.236 ± 0.0094
WISVRIFISCFF	0.318 ± 0.0052
WLCLAVLVRFPC	0.3989 ± 0.0019
WQIGIYILQGLA	0.389 ± 0.018
WSCVGLWGRFCC	0.76 ± 0.013
WSISFGLLVCWV	0.42 ± 0.013
WVFVVWFVFVVG	0.374 ± 0.021
WVGGVLLSVVGG	0.349 ± 0.0084
WVRLGRSWTTVG	0.754 ± 0.013
WVRLWGVLEAQG	0.369 ± 0.0011
WVSFYLLFFFSF	0.539 ± 0.015
YFFFPILCFCFF	0.479 ± 0.0088
YFLFLRLVFLFF	0.3874 ± 0.0034
YILLRWVNLSCL	0.645 ± 0.0099
YPVAWSSAIIIR	0.5314 ± 0.0037
YQKIARVSLAVS	0.526 ± 0.014
YVIGLLFVVSGV	0.465 ± 0.029
YYKGGYLYLRLS	0.607 ± 0.035

Same assay, conditions: genetic background: doa10 deletion; temperature: 30 C

Sequence	protein stability index
VVFSLLLWLFIS	0.161 ± 0.003
VVGLSLLFSGGV	0.662 ± 0.025
VVQCRFPTPCVV	0.349 ± 0.0096
VVSLGGWCLYIY	0.385 ± 0.023
VVVFGWIGYLYL	0.282 ± 0.019
VVVHFVLVCSTS	0.116 ± 0.011
VWFLLFVVWCGS	0.186 ± 0.021
VWLAWCIVGGLG	0.352 ± 0.015
VWVAWLGGAILA	0.174 ± 0.024
VYCCVRSLRVAI	0.395 ± 0.022
VYVRYYVRVVVI	0.0369 ± 0.0049
WCFFFVGCCCFG	0.479 ± 0.0084
WCFGSLLIRFSL	0.5049 ± 0.00066
WDLYFSVVYRVV	0.0435 ± 0.021
WFFPVSPPVMAS	0.175 ± 0.004
WFLFVLCAWGFF	0.263 ± 0.014
WFLLSLSSFVSS	0.358 ± 0.037
WFSMSRLWVFYS	0.1047 ± 0.00079
WFSRCVSLGLCW	0.274 ± 0.012

Sequence	protein stability index
WFSVRQLVFVSG	0.124 ± 0.0015
WISVRIFISCFF	0.192 ± 0.0026
WLCLAVLVRFPC	0.2621 ± 0.0017
WQIGIYILQGLA	0.146 ± 0.011
WSCVGLWGRFCC	0.267 ± 0.011
WSISFGLLVCWV	0.154 ± 0.012
WVFVVWFVFVVG	0.202 ± 0.013
WVGGVLLSVVGG	0.179 ± 0.01
WVRLGRSWTTVG	0.22 ± 0.034
WVRLWGVLEAQG	0.344 ± 0.028
WVSFYLLFFFSF	0.395 ± 0.0067
YFFFPILCFCFF	0.429 ± 0.028
YFLFLRLVFLFF	0.186 ± 0.013
YILLRWVNLSCL	0.149 ± 0.017
YPVAWSSAIIIR	0.423 ± 0.018
YQKIARVSLAVS	0.27 ± 0.021
YVIGLLFVVSGV	0.229 ± 0.0076
YYKGGYLYLRLS	0.171 ± 0.0093

Same assay, conditions: genetic background: wild type; temperature: 30 C

Sequence	protein stability index
VVFSLLLWLFIS	0.168 ± 0.018
VVGLSLLFSGGV	0.6572 ± 0.0032
